According to paper PMC11912406 (Proceedings of the National Academy of Sciences of the …, 2025):
Where two headings read alike, the source gives them in different places.

B1: recombinant murine IZUMO1-human Fc fusion protein (Fc fusion)
chain: CIKCDQFVTDALKTFENTYLNDHLPHDIHKNVMRMVNHEVSSFGVVTSAEDSYLGAVDENTLEQATWSFLKDLKRITDSDLKGELFIKELLWMLRHQKDIFNNLARQFQKEVLCPNKCGVMSQTLIWCLKCEKQLHICRKSLDCGERHIEVHRSEDLVLDCLLSWHRASKGLTDYSFYRVWENSSETLIAKGKEPYLTKSMVGPEDAGNYRCVLDTINQGHATVIRYDVTVLPPKHSEENQPPNIITQEEHETPVHVTPQTPPGQEPESELYPELHPELYPELIPTVAQNPEKKMKTR

How the values were obtained:
[1] = target: cell-surface, GPI-anchored hamster JUNO on HEK293F cells (hamster); assay: flow cytometry on cells
[2] = target: cell-surface, GPI-anchored murine JUNO on HEK293F cells (murine) (UniProt Q9EQF4); assay: flow cytometry on cells
[3] = target: IZUMO1-Fc prebound to OBF13 (IgM) (murine) (UniProt Q9D9J7); assay: BLI
[4] = target: IZUMO1-Fc prebound to OBF13^HAC (scFv) (murine) (UniProt Q9D9J7); assay: BLI
[5] = target: recombinant murine IZUMO1-human Fc fusion protein (murine) (UniProt Q9D9J7); assay: BLI
[6] = target: cell-surface, GPI-anchored hamster JUNO on HEK293F cells (hamster); assay: flow cytometry on cells; remark: listed apart in the source
[7] = target: T1, cell-surface, GPI-anchored murine JUNO on HEK293F cells (murine, UniProt Q9EQF4 20-222); assay: flow cytometry on cells
T1 sequence: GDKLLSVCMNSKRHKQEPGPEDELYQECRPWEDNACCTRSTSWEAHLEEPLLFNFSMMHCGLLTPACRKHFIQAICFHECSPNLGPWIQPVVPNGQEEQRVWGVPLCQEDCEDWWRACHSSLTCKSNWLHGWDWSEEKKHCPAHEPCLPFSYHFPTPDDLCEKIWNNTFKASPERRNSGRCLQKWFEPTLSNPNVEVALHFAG

Row | Molecule | fold decrease in kon against IZUMO1 alone [3] [fold] | fold decrease in kon against IZUMO1 alone [4] [fold] | Kd [5] [nM] | also measured
1 | IZUMO1-Fc prebound to OBF13 (IgM) (from UniProt Q9D9J7 22-319) (complex) | – | – | – | EC50 [1]: 1.4 nM; EC50 [2]: 551 nM
2 | hamster JUNO ectodomain (domain or fragment) | 2 | 2 | 659 | –
3 | murine JUNO ectodomain (domain or fragment) | 3 | 3 | 11000 | Kd [3]: 30100 nM; Kd [4]: 33800 nM
4 | B1 | – | – | – | EC50 [6]: 0.198 nM; EC50 [7]: 10.7 nM
